Biological target: SARS-CoV-2 Spike, WT (SARS-CoV-2, UniProt P0DTC2 14-1273)
Assay: cell-based or functional assay

B1: MR22950 antibody (antibody, V domains shown)
VH: QLQLQESGPGLVKPSEPLSLTCAVSGGFIGTNWWTWIRQPPGKGLEWIGRISGSVGSTSYNPSLKSRVTISRDTSKNQFSLNLNSLTAADTAVYYCAREGRLDTLDWGQGVLVIVSS
VL: QSVLTQPPSASEAARKSVTISCSGSSSNIGSYSVSWYQQFPGTPPKLLIYFNDQRASGVSDRFSGSKSGTSASLAISGLQTEDEADYYCAGWDDSLNGVLFGGGTRLTVLG
Neut50: 6 ng/mL
